Measurements: the DeepSol protein solubility set

assay: soluble on expression in E. coli; label from the status in PepcDB or PDB records

Soluble on expression in E. coli, soluble:
MSLLNPVLLPPKVKAYLSQGERFIKWDDETTVASPVILRVDPKGYYLYWTYQSKEMEFLDITSIRDTRFGKFAKMPKSQKLRDVFNMDFPDNSFLLKTLTVVSGPDMVDLTFHNFVSYKENVGKAWAEDVLALVKHPLTANASRSTFLDKILVKLKMQLNSEGKIPVKNFFQMFPADRKRVEAALSACHLPKGKNDAINPEDFPEPVYKSFLMSLCPRPEIDEIFTSYHAKAKPYMTKEHLTKFINQKQRDSRLNSLLFPPARPDQVQGLIDKYEPSGINAQRGQLSPEGMVWFLCGPENSVLAQDKLLLHHDMTQPLNHYFINSSHNTYLTAGQFSGLSSAEMYRQVLLSGCRCVELDCWKGKPPDEEPIITHGFTMTTDIFFKEAIEAIAESAFKTSPYPIILSFENHVDSPRQQAKMAEYCRTIFGDMLLTEPLEKFPLKPGVPLPSPEDLRGKILIKNKKNQFSGPTSSSKDTGGEAEGSSPPSAPAVWAGEEGTELEEEEVEEEEEEESGNLDEEEIKKMQSDEGTAGLEVTAYEEMSSLVNYIQPTKFVSFEFSAQKNRSYVISSFTELKAYDLLSKASVQFVDYNKRQMSRIYPKGTRMDSSNYMPQMFWNAGCQMVALNFQTMDLPMQQNMAVFEFNGQSGYLLKHEFMRRPDKQFNPFSVDRIDVVVATTLSITVISGQFLSERSVRTYVEVELFGLPGDPKRRYRTKLSPSTNSINPVWKEEPFVFEKILMPELASLRVAVMEEGNKFLGHRIIPINALNSGYHHLCLHSESNMPLTMPALFIFLEMKD, ETTSCEFSVSPSGLAFCDKVVGYGPEAVKGQLIKAHYVGKLENGKVFDSSYNRGKPLTFRIGVGEVIKGWDQGILGSDGIPPMLTGGKRTLRIPPELAYGDRGAGCKGGSCLIPPASVLLFDIEYIGKA, PPKIRVVVRKRPISKKERERGDDDVVDVLAKNNTVVVNEEKVKVDLTKYLEKHAFKFDESLDENVSNEAVYQLTVGPLVRTLFRNGRASCFAYGQTGSGKTYTMSPLPIRASADIFTFMAQQQYRDISLCVSCFEIYGNKVFDLLNARKKLNILEDGKKKVVVVGLKEFGVDDVDGVKALIEESAKNRSTGSTAANADSSRSHSIMQFALKRAAPAPAGGFRRGEDAPEPRVVGKISFIDLAGSERGADTFDNNRQTRLEGAEINKSLLALKECIRALDSDARHVPFRGSKLTAVLRDSFVGDQARTVMIANISPCSSSVEHTLNTLRYADRVKELRKDKADRT, MLKIISANVNGIRSAYKKGFYEYIAASGADIVCVQELKAQEADLSADMKNPHGMHGHWHCAEKRGYSGVAVYSKRKPDNVQIGMGIEEFDREGRFVRCDFGRLSVISLYLPSGSSAEERQQVKYRFLDAFYPMLEAMKNEGRDIVVCGDWNIAHQNIDLKNWKGNQKNSGFLPEEREWIGKVIHKLGWTDMWRTLYPDVPGYTWWSNRGQAYAKDVGWRIDYQMVTPELAAKAVSAHVYKDEKFSDHAPLVVEYDYAAE, MSLSYTTQQIIEKLRELKIVPVIALDNADDILPLADTLAKNGLSVAEITFRSEAAADAIRLLRANRPDFLIAAGTVLTAEQVVLAKSSGADFVVTPGLNPKIVKLCQDLNFPITPGVNNPMAIEIALEMGISAVKFFPAEASGGVKMIKALLGPYAQLQIMPTGGIGLHNIRDYLAIPNIVACGGSWFVEKKLIQSNNWDEIGRLVREVIDIIKEGGSHHHHHH, MAHHHHHHMMAAPGTSQLDSLKATARKGFYTGLSSGLMRQLIYATARLGFYPSFRDGILEGEVALGLKRSADPAGATALDRALAGASAGVFASFLSSPVEVCLVLQTTSKGKERLSMLQACNSVLKSRGVTGLWSGFGALASRAALVGVSQVAVHDQVLTMLRKRNVKRADPLGDNVVVNIASVITALFYSIVTMPVEVARVRMSAEAKLSAGAERRYHNVVQCIGRIFKEEGLLAMYDSYLPYFSRCASQTVICFFVIEYLTRELRERQKAKTNLIK, MQKVESIIIGGGPCGLSAAIEQKRKGIDTLIIEKGNVVESIYNYPTHQTFFSSSDKLSIGDVPFIVEESKPRRNQALVYYREVVKHHQLKVNAFEEVLTVKKMNNKFTITTTKDVYECRFLTIATGYYGQHNTLEVEGADLPKVFHYFKEAHPYFDQDVVIIGGKNSAIDAALELEKAGANVTVLYRGGDYSPSIKPWILPNFTALVNHEKIDMEFNANVTQITEDTVTYEVNGESKTIHNDYVFAMIGYHPDYEFLKSVGIQINTNEFGTAPMYNKETYETNIENCYIAGVIAAGNDANTIFIENGKFHGGIIAQNMLAKKQTPLES

Soluble on expression in E. coli, not soluble:
MGSDKIHHHHHHMTKQLLVLQSDFGISDGAVSAMYGVINSVSKDLQIYDLTHQIPQFNIWEASYRLLQTVTYWPEDTIFVSIVDPGVGSKRRSVVVLTEDGHYIITPDNGTLTHIAHYGTIKEVRLIDEEKNRLPKSGASHTFHGRDIFAYTAARLAAGVINFEDIGPSATPDSIVSLSLSDSYLEGEQAFGTIDIIDRPFGNLWTNIRRTDFLQLGANYGDSIEVLIKHHDRVVYKNFVTYSRSFADLRIGEALIYVNSLDNLGLGINQGSFVDAYSVGTGTSWKVTLKKV, MLQGDITMRYNSLNSYLKEKFGCKIYKLALSGGLSCPNRDGTISTGGCIFCSNGGSGDFAADKMLSITEQIESAKNRVSAKIKNGKYIAYFQSFTNTYGDIDYLRSIFTEAINHPDIVALSIGTRPDCLPDEVLNLLGELNKIKPVWVELGLQTIHENTAKYINRGYTLDVFNTAVNNLNKINVDVIVHLIIGLPFESKEDILESVKYVSSMNISGIKLQLLHVLKNTPLEKEYSLNKFEVLSMEEYVNIIAECLRYIPKSIVIHRLTGDGPKSILVAPLWSGNKKAVLNYMNKRFNELNVIQGSLCS, DDIHLIATSDVLYFKAEEKYVSVYAQQGKGEVQEYLIRTSLKELIGQLNPEQFWQVHRSSVVQVSKISKVNKDFAGRMFVYVGETKLPVSRASQSLFKGM, MGSDKIHHHHHHMSAFSVEKIGLQDSQQFSKLFIDYLAQQEHIQPLYTFYPDMAGLETAIEKRSKQPINRTVLVERLKAQYKDLPVSEKVQQNIERLASEHTFTITTGHQLCLGTGPLYLILKTLSCVKLCEALKTKHADNEFVPVFWMASEDHDAAEINHFYVFGKKYTWETTQTGAVGRFTTTGISEVLETIKDIPAWLKDAYQSSVTLAEATRKVMHQLFAEYGVVVIDGDDAALKKEFTAVIEKELFEQPAVAVMNQTNRSIERHGYSIQVNPRDINLFYVKDSLRERIEKQGERFVVLHTDVSFSAGEIKKEVADHPERFSPNVVLRPLYESTILPDIAYVGGPGEIAYWLQLKEVFAVYNTFLPAIFPRMFSGVITKQQCVKLEKAHVTVAELFLSEFDLKQVVVSRSIQEEISIEAEAGKITAAFDTIASIAATVDGSLQSWAQAEKAKALKQLEDIEKKLRKAEERKHDDVIKSVLGIRDKILPNGKLQERQESVFTFLVNDAQLIEKLYQSLDPCTFNIQMCCYE, MKSLVKVSLAALALAFAVSAYAAEKELIVATDTAFVPFEFKQGDKYVGFDIDLWDAIAKKLDLKYTLKPMDFSGIIPALQTKNVDLALAGITITDERKKAVDFSDGYYNSGLLVMVKADNNDIKSEADLQGKVLAVKSGTGSVDYAKANIKTKDLRQFPNIDNAYLELGTGRADAVLHDTPNILYFIKTAGNGQFKAVGESIKAQQYGVAFPQGSDLREKVNAALKSLKEDGTYAEIYKKWFGVEPK, MKSFILGPLGLLVAICCLYQPADAALAAMSIDLGSQFIKIGLVKPGVPMDIVLNKESRRKTPNVISFKNDERFFAEAAAAMSSSHPQSSYNFLLSMIARKEGDDAFVTFQKTFPFTAFEFDEVRKTVVFPYKEEKYNVETLLAMILWNAKKVTEAYADQTVKDVVITVPIFLNQAERRAIASAAEIAGLNLLQLLNDGSAAALNYGVFRRKEITEKPTHMLIYDMGAVKTTATIVQYVLESTRKDGKDKQPTLRTVGVGFDKTLGGLEITNRLRDHLEKVFRDTVKTSKDISTNARAIGKLHKEAERVKQVLSANKDTYAQVESLFEEQNFRAKVTREELEKMIEDLEPRIAAPILDAIGMAQISTNDIDLVVLMGAGTRVPKVKEILKTILKDKEISNFLNTDEAIAMGAVYQAAHLSKSFKVLPFNVHEKILYPVFVNFLTKTEEGTMKPIRKSLFGENYPVPNRVMHFSSYSDDFKIDIQDADKNPLSTVEISGVKDAIEKEVTDENSVLKGVKTTFSIDLSGIVSVEKASVVVEKVPTPEEKDKYEVDKKEFDEWEKEQEELKKKEKAEKKEKEEKKKTEGEEEKNEDAAGEEKTEEKTEEVEKPVVVKKTKPVEPKAKKINVALTIKETKTDNIDLNEEEVTAAKKVLGDFEQKEKEKHDREEAMNRLEGLLYDLAVRLEDGEEYAEYATEEEKKAILEEVAVLKLWFEDDVSLETKKEEFDEKRAKLEELTAKPNARKQERLDIPKVAEIIEDHFNRSMTFHAMALNLTQFEEGNKTFTDTELEVLTKLIESTTEWWNEKKDLFEKQAKNEDPVVKASEIAEKARDLEREVRYLVNKLKIASSKKSKESEKKKKTKKEKDTVKERKEEETTETTTEDQANEQQTPPPFENDNTKDDESASTEEPKKDTEHDASEL, MSLSQLVLILGDQLSPSIAALDGVDKKQDTIVLCEVMAEASYVGHHKKKIAFIFSAMRHFAEELRGEGYRVRYTRIDDADNAGSFTGEVKRAIDDLTPSRICVTEPGEWRVRSEMDGFAGAFGIQVDIRSDRRFLSSHGEFRNWAAGRKSLTMEYFYREMRRKTGLLMNGEQPVGGRWNFDAENRQPARPDLLRPKHPVFAPDKITKEVIDTVERLFPDNFGKLENFGFAEGHHHHHH, MGSDKIHHHHHHMRKVAIYSRVSTINQAEEGYSIQGQIEALTKYCEAMEWKIYKNYSDAGFSGGKLERPAITELIEDGKNNKFDTILVYKLDRLSRNVKDTLYLVKDVFTANNIHFVSLKENIDTSSAMGNLFLTLLSAIAEFEREQIKERMQFGVMNRAKSGKTTAWKTPPYGYRYNKDEKTLSVNELEAANVRQMFDMIISGCSIMSITNYARDNFVGNTWTHVKVKRILENETYKGLVKYREQTFSGDHQAIIDEKTYNKAQIALAHRTDTKTNTRPFQGKYMLSHIAKCGYCGAPLKVCTGRAKNDGTRRQTYVCVNKTESLARRSVNNYNNQKICNTGRYEKKHIEKYVIDVLYKLQHDKEYLKKIKKDDNIIDITPLKKEIEIIDKKINRLNDLYINDLIDLPKLKKDIEELNHLKDDYNKAIKLNYLDKKNEDSLGMLMDNLDIRKSSYDVQSRIVKQLIDRVEVTMDNIDIIFKF, MTEEQFSSYHPPLPPTTEEDRFSWLRLLRSRRVGPTTFRRLMHEHGTAQNALAALPEVARAAGVEGYEICPPGVVEAELKAAKAAKARLLCLGDADYPSHLAGISDAPPLLWLLGDPALLRRPMIALVGARNASSLGTRMARALAQDLGTAGFVVVSGLARGIDTAAHLAALPSGTIAVMAGGVDTVYPAENTHLAADIAQHGLRLSEQPMRLTPQARHFPRRNRIISGLAQAVVVVEAAAKSGSLITARDALDQGREVLAVPGHPFDARAAGCNMLIRDGAHLVRNAEDVITALPALTAPQPQPDLCDLMQQPAPPAKRSLRETVALHSLILDRLGPSPVAEDQLIRDLAASPGEVAPVLVDLELEGRINRQAGGLLSRVN, MGSDKIHHHHHHVSDLLSQDEIDALLHGVDDVEEEEVSDALDARAYDFSSQDRIVRGRMPTLEIVNERFARHLRISMFNMMRRAAEVSINGVQMLKFGEYVHTLFVPTSLNMVRFSPLKGTALITMEARLVFILVDNFFGGDGRFHAKIEGREFTPTERRIVQLLLKIIFEDYKEAWAPVMDVEFDYLDSEVNPAMANIVSPTEVVVVSSFHIEVDGGGGDFHITMPYSMIEPIRELLDAGVQSDTQDTDMRWSQALKDEIMDVEVGLDATIVEKEISLKDVMGFKAGDIIPVEMPEYIVLRVEDLPTYRCKLGRSRENLALNIREKIPRPETVKTELQLVTKKSKSRDLNNI
